According to patent US20220056091A1:

T1: Fc fused human IL-18BP isoform a (IL-18BPa) (human), O95998
T1 chain: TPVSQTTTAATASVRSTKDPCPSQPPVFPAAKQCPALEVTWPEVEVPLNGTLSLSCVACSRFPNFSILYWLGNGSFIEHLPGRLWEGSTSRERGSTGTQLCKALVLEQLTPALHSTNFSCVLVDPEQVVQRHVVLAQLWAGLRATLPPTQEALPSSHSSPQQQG


Biological target: T1, Fc fused human IL-18BP isoform a …
Experiment: SPR, Fc-IL-18BPa captured, 1:1 model
Settings: remark: other sources report otherwise

Kd | koff | kon | Binder
323 nM | 0.0154 s⁻¹ | 47800 M⁻¹ s⁻¹ | Modified IL-18 polypeptide of SEQ ID NO: 2 (E06K, K53A, S55A), Q14116 37-193 (ligand) YFGKLKSKLSVIRNLNDQVLFIDQGNRPLFEDMTDSDCRDNAPRTIFIISMYADAQPRGMAVTISVKCEKISTLSCENKIISFKEMNPPDNIKDTKSDIIFFQRSVPGHDNKMQFESSSYEGYFLACEKERDLFKLILKKEDELGDRSIMFTVQNED
1000 nM |  |  | Modified IL-18 polypeptide of SEQ ID NO: 17 (E06K, K53A, S55A, C38S, C68S, C76S, C127S, K70C), Q14116 37-193 (ligand) YFGKLKSKLSVIRNLNDQVLFIDQGNRPLFEDMTDSDSRDNAPRTIFIISMYADAQPRGMAVTISVKSECISTLSSENKIISFKEMNPPDNIKDTKSDIIFFQRSVPGHDNKMQFESSSYEGYFLASEKERDLFKLILKKEDELGDRSIMFTVQNED
> 1000 nM |  |  | Modified IL-18 polypeptide of SEQ ID NO: 3 (Y01G, F02A, E06K, M51G, K53A, D54A, S55A, T63A), Q14116 37-193 (ligand) GAGKLKSKLSVIRNLNDQVLFIDQGNRPLFEDMTDSDCRDNAPRTIFIISGYAAAQPRGMAVAISVKCEKISTLSCENKIISFKEMNPPDNIKDTKSDIIFFQRSVPGHDNKMQFESSSYEGYFLACEKERDLFKLILKKEDELGDRSIMFTVQNED
